Assay results reported in patent publication US20250042970A1 (AURINIA PHARMACEUTICALS, published 2025).
Where two headings read alike, the source gives them in different places.

Key:
Variant BAv8-10-Ig [1] = biological target: T1, Variant BAv8-10-Ig (human, UniProt P01859-1 99-326 = IgG part); assay: BIACORE SPR
T1 construct: domain: Fc; also called Variant 8-10-Ig; BAv8-10-PIg18
Experimental: (§1) For human BAFF, cynomolgus monkey APRIL, and mouse APRIL measurements, mouse monoclonal antibody (IgG1) anti-FLAG M2 (Sigma Aldrich, Cat. No. F1804) was immobilized on CM3 sensor chips (GE Healthcare, Cat. No. BR-1005-41) according to the manufacturer's protocol. Antibody was diluted to 30 μg/ml in immobilization buffer (10 mM pH 5±0.20; GE Healthcare; GE Healthcare, Catalog No. BR-1003-51). […] Unreacted sites were quenched with 35 μl of 1M ethanolamine-HCl, pH 8.5 (GE Healthcare, GE Healthcare, Cat. No. BR-1000-50). This procedure typically yielded 3,000-4,000 response units (RU) of coupled antibody.
(§2) The fusion polypeptides were diluted in HBS-EP buffer and flowed over ligand-coated sensor chips. The variant BCMA-Ig and surrogate control fusion proteins were injected at three concentrations (1.5 nM, 15 nM, and 150 nM at 30 μl/min for 2 minutes per association phase) in a single binding cycle, followed by a 20 minute incubation with HBS-EP buffer containing no protein at the same flow rate. A similar protocol was followed for Z-TACI-Ig, except that the injections were at 4.5 nM, 45 nM, and 450 nM.
Using available information from the structures and published literature, several residues in BAv8-10 were targeted for substitution with conserved as well as non-conserved residues and their effect on BAFF and APRIL binding was assessed by BIACORE.
Target sequence in this assay (P01859 other isoform, or with tags, fused parts or gaps mutant limits assumed): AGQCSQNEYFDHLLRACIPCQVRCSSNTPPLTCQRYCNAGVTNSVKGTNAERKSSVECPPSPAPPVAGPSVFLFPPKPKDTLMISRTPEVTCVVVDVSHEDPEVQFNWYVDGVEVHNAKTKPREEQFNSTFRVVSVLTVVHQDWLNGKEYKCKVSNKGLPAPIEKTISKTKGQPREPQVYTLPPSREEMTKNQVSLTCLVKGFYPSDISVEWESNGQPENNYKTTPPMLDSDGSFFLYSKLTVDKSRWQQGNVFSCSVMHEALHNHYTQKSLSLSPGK

Variant 50237854-Ig = biological target: T2, Variant 50237854-Ig (human, UniProt P01859-1 99-326 = IgG part); assay: BIACORE SPR
T2 construct: domain: Fc; also called Parent 4
T2 sequence (P01859 other isoform, or with tags, fused parts or gaps mutant limits assumed): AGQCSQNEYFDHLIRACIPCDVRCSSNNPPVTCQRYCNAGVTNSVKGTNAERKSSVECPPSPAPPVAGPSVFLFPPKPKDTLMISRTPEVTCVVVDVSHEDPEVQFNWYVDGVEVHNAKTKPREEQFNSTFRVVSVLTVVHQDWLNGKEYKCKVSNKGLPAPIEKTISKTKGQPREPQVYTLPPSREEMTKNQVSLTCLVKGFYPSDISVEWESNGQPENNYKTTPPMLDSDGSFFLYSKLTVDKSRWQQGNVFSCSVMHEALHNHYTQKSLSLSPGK

Variant 50238494-Ig = biological target: T3, Variant 50238494-Ig (human, UniProt P01859-1 99-326 = IgG part); assay: BIACORE SPR
T3 construct: domain: Fc; also called Parent 11
T3 sequence (P01859 other isoform, or with tags, fused parts or gaps mutant limits assumed): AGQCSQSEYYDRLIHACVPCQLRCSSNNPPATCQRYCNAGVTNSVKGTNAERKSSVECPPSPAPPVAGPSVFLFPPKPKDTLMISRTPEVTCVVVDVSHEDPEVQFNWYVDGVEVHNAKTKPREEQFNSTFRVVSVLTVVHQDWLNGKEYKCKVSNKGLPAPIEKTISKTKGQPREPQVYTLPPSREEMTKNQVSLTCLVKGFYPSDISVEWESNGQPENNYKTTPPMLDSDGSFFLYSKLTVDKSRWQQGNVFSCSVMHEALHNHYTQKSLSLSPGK

Variant 50238475-Ig [2] = biological target: T4, Variant 50238475-Ig (human, UniProt P01859-1 99-326 = IgG part); assay: BIACORE SPR
T4 construct: domain: Fc; also called Parent 9; Variant 50238475-PIg18
T4 sequence (P01859 other isoform, or with tags, fused parts or gaps mutant limits assumed): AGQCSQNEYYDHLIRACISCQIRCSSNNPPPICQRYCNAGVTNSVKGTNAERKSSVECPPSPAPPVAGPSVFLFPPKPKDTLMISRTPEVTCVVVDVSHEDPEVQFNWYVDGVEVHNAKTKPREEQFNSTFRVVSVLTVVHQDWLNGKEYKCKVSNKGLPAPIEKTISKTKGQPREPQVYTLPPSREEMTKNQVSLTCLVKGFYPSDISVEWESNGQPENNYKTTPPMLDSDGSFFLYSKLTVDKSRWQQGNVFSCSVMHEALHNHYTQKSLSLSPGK

Variant 50239978-Ig = biological target: T5, Variant 50239978-Ig (human, UniProt P01859-1 99-326 = IgG part); assay: BIACORE SPR
T5 construct: domain: Fc; also called Parent 12
T5 sequence (P01859 other isoform, or with tags, fused parts or gaps mutant limits assumed): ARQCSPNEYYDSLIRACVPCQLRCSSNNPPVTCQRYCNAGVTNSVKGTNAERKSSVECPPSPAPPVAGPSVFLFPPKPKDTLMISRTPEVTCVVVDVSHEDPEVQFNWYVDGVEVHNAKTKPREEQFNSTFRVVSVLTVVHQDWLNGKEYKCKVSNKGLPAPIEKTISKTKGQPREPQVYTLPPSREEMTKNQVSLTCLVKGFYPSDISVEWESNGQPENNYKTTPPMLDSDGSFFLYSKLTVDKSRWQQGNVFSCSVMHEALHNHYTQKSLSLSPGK

Variant 50238504R-Ig = biological target: T6, Variant 50238504R-Ig (human, UniProt P01859-1 99-326 = IgG part); assay: BIACORE SPR
T6 construct: domain: Fc; also called Parent 8

Variant 50237847-Ig = biological target: T7, Variant 50237847-Ig (human, UniProt P01859-1 99-326 = IgG part); assay: BIACORE SPR
T7 construct: domain: Fc; also called Parent 3
T7 sequence (P01859 other isoform, or with tags, fused parts or gaps mutant limits assumed): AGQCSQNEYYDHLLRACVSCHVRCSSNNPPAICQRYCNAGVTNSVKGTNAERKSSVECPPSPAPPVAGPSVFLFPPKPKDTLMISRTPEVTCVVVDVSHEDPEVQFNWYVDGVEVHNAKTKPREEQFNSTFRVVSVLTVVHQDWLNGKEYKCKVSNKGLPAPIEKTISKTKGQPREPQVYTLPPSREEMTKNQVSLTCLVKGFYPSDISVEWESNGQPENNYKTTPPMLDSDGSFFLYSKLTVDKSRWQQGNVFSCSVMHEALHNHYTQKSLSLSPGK

Variant 50239040-Ig = biological target: T8, Variant 50239040-Ig (human, UniProt P01859-1 99-326 = IgG part); assay: BIACORE SPR
T8 construct: domain: Fc; also called Parent 10
T8 sequence (P01859 other isoform, or with tags, fused parts or gaps mutant limits assumed): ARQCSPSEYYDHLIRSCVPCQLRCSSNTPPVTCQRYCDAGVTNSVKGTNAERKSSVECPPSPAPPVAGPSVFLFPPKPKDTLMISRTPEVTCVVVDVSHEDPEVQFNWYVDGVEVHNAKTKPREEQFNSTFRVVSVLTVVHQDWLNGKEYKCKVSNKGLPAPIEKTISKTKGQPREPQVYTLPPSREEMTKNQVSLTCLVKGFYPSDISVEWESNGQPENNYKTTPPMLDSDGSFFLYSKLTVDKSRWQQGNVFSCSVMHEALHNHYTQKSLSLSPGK

Variant 50234224-Ig = biological target: T9, Variant 50234224-Ig (human, UniProt P01859-1 99-326 = IgG part); assay: BIACORE SPR
T9 construct: domain: Fc; also called Parent 6
T9 sequence (P01859 other isoform, or with tags, fused parts or gaps mutant limits assumed): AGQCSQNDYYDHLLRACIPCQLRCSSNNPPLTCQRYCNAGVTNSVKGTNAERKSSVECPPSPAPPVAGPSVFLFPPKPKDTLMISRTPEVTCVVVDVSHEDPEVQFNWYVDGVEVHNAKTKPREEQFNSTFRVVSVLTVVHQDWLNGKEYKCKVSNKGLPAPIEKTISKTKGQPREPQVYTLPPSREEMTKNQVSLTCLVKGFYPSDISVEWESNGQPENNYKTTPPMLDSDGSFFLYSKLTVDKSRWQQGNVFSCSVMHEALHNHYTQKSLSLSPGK

Variant 50240054-Ig = biological target: T10, Variant 50240054-Ig (human, UniProt P01859-1 99-326 = IgG part); assay: BIACORE SPR
T10 construct: domain: Fc; also called Parent 2
T10 sequence (P01859 other isoform, or with tags, fused parts or gaps mutant limits assumed): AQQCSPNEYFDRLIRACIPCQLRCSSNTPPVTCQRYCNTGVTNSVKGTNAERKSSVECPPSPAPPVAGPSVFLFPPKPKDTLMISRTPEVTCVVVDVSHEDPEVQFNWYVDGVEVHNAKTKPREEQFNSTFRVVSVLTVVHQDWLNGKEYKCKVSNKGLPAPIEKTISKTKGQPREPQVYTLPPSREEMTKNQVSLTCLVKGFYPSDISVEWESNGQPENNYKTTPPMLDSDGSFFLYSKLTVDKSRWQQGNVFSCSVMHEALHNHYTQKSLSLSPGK

Variant 50237844-Ig = biological target: T11, Variant 50237844-Ig (human, UniProt P01859-1 99-326 = IgG part); assay: BIACORE SPR
T11 construct: domain: Fc; also called Parent 7
T11 sequence (P01859 other isoform, or with tags, fused parts or gaps mutant limits assumed): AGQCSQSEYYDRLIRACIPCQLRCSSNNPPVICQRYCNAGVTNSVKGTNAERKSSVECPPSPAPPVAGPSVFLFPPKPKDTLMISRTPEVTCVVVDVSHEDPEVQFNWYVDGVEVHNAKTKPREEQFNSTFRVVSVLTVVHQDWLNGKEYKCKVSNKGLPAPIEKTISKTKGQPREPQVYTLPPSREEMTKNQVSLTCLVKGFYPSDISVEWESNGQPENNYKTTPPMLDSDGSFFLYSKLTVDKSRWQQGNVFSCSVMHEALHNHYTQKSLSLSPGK

Variant 50239698-Ig = biological target: T12, Variant 50239698-Ig (human, UniProt P01859-1 99-326 = IgG part); assay: BIACORE SPR
T12 construct: domain: Fc; also called Parent 5
T12 sequence (P01859 other isoform, or with tags, fused parts or gaps mutant limits assumed): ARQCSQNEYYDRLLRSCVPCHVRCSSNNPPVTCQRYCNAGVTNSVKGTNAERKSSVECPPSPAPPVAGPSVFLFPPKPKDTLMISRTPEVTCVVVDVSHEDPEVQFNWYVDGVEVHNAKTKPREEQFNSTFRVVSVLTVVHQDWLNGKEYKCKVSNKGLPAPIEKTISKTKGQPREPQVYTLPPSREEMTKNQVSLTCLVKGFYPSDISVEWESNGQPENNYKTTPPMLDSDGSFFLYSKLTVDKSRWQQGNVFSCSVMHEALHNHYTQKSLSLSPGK

Variant 50238779-Ig = biological target: T13, Variant 50238779-Ig (human, UniProt P01859-1 99-326 = IgG part); assay: BIACORE SPR
T13 construct: domain: Fc; also called Parent 1
T13 sequence (P01859 other isoform, or with tags, fused parts or gaps mutant limits assumed): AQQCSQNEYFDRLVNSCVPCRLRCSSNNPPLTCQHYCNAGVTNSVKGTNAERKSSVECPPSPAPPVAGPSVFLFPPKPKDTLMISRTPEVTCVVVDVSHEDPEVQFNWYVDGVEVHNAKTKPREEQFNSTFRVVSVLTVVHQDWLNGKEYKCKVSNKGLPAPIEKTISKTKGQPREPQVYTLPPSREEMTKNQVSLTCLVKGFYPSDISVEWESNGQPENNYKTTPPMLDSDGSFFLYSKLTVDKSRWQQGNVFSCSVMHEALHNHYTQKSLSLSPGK

Variant BAv8-10-Ig [3] = biological target: T1, Variant BAv8-10-Ig; assay: BIACORE SPR; remark: listed apart in the source
Description: as §1, with “The standard kinetic assay measures binding kinetics of trimeric ligand (e.g., human BAFF, cynomolgus monkey APRIL, mouse BAFF, or mouse APRIL) coated on sensor chips and dimeric analytes (e.g., variant BCMA-Ig fusion proteins) in the mobile phase. […] For” for “For”
as §2
(§3) The analyses described above were performed on protein preparations of representative variant BCMA ECD-Ig fusion polypeptides, as well as the Z-TACI-Ig and [S40G]huBCMA ECD-Ig control fusion polypeptides, and the data is presented in Table 1.

Variant 50238475-Ig [4] = biological target: T4, Variant 50238475-Ig; assay: BIACORE SPR; remark: listed apart in the source
Description: as §1, with “The standard kinetic assay measures binding kinetics of trimeric ligand (e.g., human BAFF, cynomolgus monkey APRIL, mouse BAFF, or mouse APRIL) coated on sensor chips and dimeric analytes (e.g., variant BCMA-Ig fusion proteins) in the mobile phase. […] For” for “For”
as §2, §3

Variant BAv9-1-Ig [5] = biological target: T14, Variant BAv9-1-Ig (human, UniProt P01859-1 99-326 = IgG part); assay: BIACORE SPR
T14 construct: domain: Fc; also called Variant 9-1-Ig; BAv9-1-pIg18
Description: as §1, with “The standard kinetic assay measures binding kinetics of trimeric ligand (e.g., human BAFF, cynomolgus monkey APRIL, mouse BAFF, or mouse APRIL) coated on sensor chips and dimeric analytes (e.g., variant BCMA-Ig fusion proteins) in the mobile phase. […] For” for “For”
as §2, §3
Target sequence in this assay (P01859 other isoform, or with tags, fused parts or gaps mutant limits assumed): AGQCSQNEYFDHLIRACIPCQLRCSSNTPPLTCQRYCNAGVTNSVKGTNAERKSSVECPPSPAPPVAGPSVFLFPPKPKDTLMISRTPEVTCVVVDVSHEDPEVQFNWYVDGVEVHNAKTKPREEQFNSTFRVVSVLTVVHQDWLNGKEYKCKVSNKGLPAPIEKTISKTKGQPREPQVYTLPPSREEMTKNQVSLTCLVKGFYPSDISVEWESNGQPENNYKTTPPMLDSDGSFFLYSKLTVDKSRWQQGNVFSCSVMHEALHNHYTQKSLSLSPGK

Variant BAv1-12-Ig [6] = biological target: T15, Variant BAv1-12-Ig (human, UniProt P01859-1 99-326 = IgG part); assay: BIACORE SPR
T15 construct: domain: Fc; also called Variant 1-12-Ig
Description: as §1, with “The standard kinetic assay measures binding kinetics of trimeric ligand (e.g., human BAFF, cynomolgus monkey APRIL, mouse BAFF, or mouse APRIL) coated on sensor chips and dimeric analytes (e.g., variant BCMA-Ig fusion proteins) in the mobile phase. […] For” for “For”
as §2, §3
Target sequence in this assay (P01859 other isoform, or with tags, fused parts or gaps mutant limits assumed): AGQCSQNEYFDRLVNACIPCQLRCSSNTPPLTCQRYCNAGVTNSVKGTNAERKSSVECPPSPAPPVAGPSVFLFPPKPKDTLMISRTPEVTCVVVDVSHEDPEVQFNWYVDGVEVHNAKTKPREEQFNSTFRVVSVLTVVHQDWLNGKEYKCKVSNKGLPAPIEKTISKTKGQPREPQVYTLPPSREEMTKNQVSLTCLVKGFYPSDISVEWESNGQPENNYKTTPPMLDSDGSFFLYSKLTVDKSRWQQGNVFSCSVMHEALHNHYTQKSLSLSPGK

Variant BAv8-9-Ig [7] = biological target: T16, Variant BAv8-9-Ig (human, UniProt P01859-1 99-326 = IgG part); assay: BIACORE SPR
T16 construct: domain: Fc; also called Variant 8-9-Ig; BAv8-9-PIg18
Description: as §1, with “The standard kinetic assay measures binding kinetics of trimeric ligand (e.g., human BAFF, cynomolgus monkey APRIL, mouse BAFF, or mouse APRIL) coated on sensor chips and dimeric analytes (e.g., variant BCMA-Ig fusion proteins) in the mobile phase. […] For” for “For”
as §2, §3
Target sequence in this assay (P01859 other isoform, or with tags, fused parts or gaps mutant limits assumed): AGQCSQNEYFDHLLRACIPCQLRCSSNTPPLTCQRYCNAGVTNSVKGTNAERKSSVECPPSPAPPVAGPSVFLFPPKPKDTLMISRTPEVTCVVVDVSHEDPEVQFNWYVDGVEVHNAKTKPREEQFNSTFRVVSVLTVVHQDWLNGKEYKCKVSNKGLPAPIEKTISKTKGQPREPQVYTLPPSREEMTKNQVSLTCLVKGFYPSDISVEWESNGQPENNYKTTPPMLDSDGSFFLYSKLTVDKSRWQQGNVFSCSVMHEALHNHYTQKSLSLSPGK

BAv66-Ig = biological target: T17, BAv66-Ig (human, UniProt P01859-1 99-326 = IgG part); assay: BIACORE SPR
T17 construct: domain: Fc; also called Variant BAv66-Ig
T17 sequence (P01859 other isoform, or with tags, fused parts or gaps limits assumed): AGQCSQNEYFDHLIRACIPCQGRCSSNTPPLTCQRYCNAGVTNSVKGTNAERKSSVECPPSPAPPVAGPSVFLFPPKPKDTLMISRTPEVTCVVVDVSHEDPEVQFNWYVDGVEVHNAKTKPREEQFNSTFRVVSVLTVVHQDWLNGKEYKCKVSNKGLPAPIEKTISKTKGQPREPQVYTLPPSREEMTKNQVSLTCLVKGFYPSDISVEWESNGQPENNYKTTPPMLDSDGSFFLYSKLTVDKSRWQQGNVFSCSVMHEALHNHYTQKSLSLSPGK
Description: as §1, with “The standard kinetic assay measures binding kinetics of trimeric ligand (e.g., human BAFF, cynomolgus monkey APRIL, mouse BAFF, or mouse APRIL) coated on sensor chips and dimeric analytes (e.g., variant BCMA-Ig fusion proteins) in the mobile phase. […] For” for “For”
as §2, §3

Variant BAv11-6-Ig [8] = biological target: T18, Variant BAv11-6-Ig (human, UniProt P01859-1 99-326 = IgG part); assay: BIACORE SPR
T18 construct: domain: Fc; also called Variant 11-6-Ig; BAv11-6-PIg18
Description: as §1, with “The standard kinetic assay measures binding kinetics of trimeric ligand (e.g., human BAFF, cynomolgus monkey APRIL, mouse BAFF, or mouse APRIL) coated on sensor chips and dimeric analytes (e.g., variant BCMA-Ig fusion proteins) in the mobile phase. […] For” for “For”
as §2, §3

Variant BAv9-5-Ig [9] = biological target: T19, Variant BAv9-5-Ig (human, UniProt P01859-1 99-326 = IgG part); assay: BIACORE SPR
T19 construct: domain: Fc; also called Variant 9-5-Ig; BAv9-5-PIg18
Description: as §1, with “The standard kinetic assay measures binding kinetics of trimeric ligand (e.g., human BAFF, cynomolgus monkey APRIL, mouse BAFF, or mouse APRIL) coated on sensor chips and dimeric analytes (e.g., variant BCMA-Ig fusion proteins) in the mobile phase. […] For” for “For”
as §2, §3

Variant BAv3-10-Ig [10] = biological target: T20, Variant BAv3-10-Ig (human, UniProt P01859-1 99-326 = IgG part); assay: BIACORE SPR
T20 construct: domain: Fc; also called Variant 3-10-Ig; BAv3-10-PIg18
Description: as §1, with “The standard kinetic assay measures binding kinetics of trimeric ligand (e.g., human BAFF, cynomolgus monkey APRIL, mouse BAFF, or mouse APRIL) coated on sensor chips and dimeric analytes (e.g., variant BCMA-Ig fusion proteins) in the mobile phase. […] For” for “For”
as §2, §3
Target sequence in this assay (P01859 other isoform, or with tags, fused parts or gaps mutant limits assumed): as the sequence (P01859 other isoform, or with tags, fused parts or gaps limits assumed) above, with H12R, G22L counted along it

Variant BAv8-10-Ig [11] = biological target: T1, Variant BAv8-10-Ig; assay: KinExA
Variant BAv9-1-Ig [12] = biological target: T14, Variant BAv9-1-Ig; assay: KinExA
Variant BAv1-12-Ig [13] = biological target: T15, Variant BAv1-12-Ig; assay: KinExA
Variant 9-3-Ig = biological target: T21, Variant 9-3-Ig (human, UniProt P01859-1 99-326 = IgG part); assay: KinExA
T21 construct: domain: Fc; also called BAv9-3

Variant BAv8-9-Ig [14] = biological target: T16, Variant BAv8-9-Ig; assay: KinExA
Variant BAv11-6-Ig [15] = biological target: T18, Variant BAv11-6-Ig; assay: KinExA
Variant BAv9-5-Ig [16] = biological target: T19, Variant BAv9-5-Ig; assay: KinExA
Variant BAv3-10-Ig [17] = biological target: T20, Variant BAv3-10-Ig; assay: KinExA
Variant BAv9-1-Ig [18] = biological target: T14, Variant BAv9-1-Ig; assay: KinExA; remark: listed apart in the source

B1: FLAG-tagged cynomolgous APRIL (ligand, not shown: small tags and cut ends)
chain: KQKKQHSVLHLVPINATSKDDSDVTEVMWQPALRRGRGLQAQGYGVRIRDAGVYLLYSQVLFQDVTFTMGQVVSREGQGKQETLFRCIRSMPSHPDRAYNSCYSAGVFHLHQGDILSVIIPRARAKLNLSPHGTFLGFVKL
notes: FLAG-tagged, expressed with TPA signal peptide; also called cyAPRIL
- Kd (Variant BAv8-10-Ig [1]): 76 pM
- Kd (Variant 50237854-Ig): 59 pM
- Kd (Variant 50238494-Ig): 12 pM
- Kd (Variant 50238475-Ig [2]): 42 pM
- Kd (Variant 50239978-Ig): 24 pM
- Kd (Variant 50238504R-Ig): 72 pM
- Kd (Variant 50237847-Ig): 37 pM
- Kd (Variant 50239040-Ig): 54 pM
- Kd (Variant 50234224-Ig): 39 pM
- Kd (Variant 50240054-Ig): 23 pM
- Kd (Variant 50237844-Ig): 28 pM
- Kd (Variant 50239698-Ig): 17 pM
- Kd (Variant 50238779-Ig): 28 pM
- Kd (Variant BAv8-10-Ig [3]): 53.9 pM
- Kd (Variant 50238475-Ig [4]): 78.9 pM
- Kd (Variant BAv9-1-Ig [5]): 21.4 pM
- Kd (Variant BAv1-12-Ig [6]): 10.1 pM
- Kd (Variant BAv8-9-Ig [7]): 22.6 pM
- Kd (BAv66-Ig): 62600 pM
- Kd (Variant BAv11-6-Ig [8]): 24.4 pM
- Kd (Variant BAv9-5-Ig [9]): 28.4 pM
- Kd (Variant BAv3-10-Ig [10]): 13.9 pM

B2: FLAG-tagged recombinant human APRIL (ligand)
chain: AVLTQKQKKQHSVLHLVPINATSKDDSDVTEVMWQPALRRGRGLQAQGYGVRIQDAGVYLLYSQVLFQDVTFTMGQVVSREGQGRQETLFRCIRSMPSHPDRAYNSCYSAGVFHLHQGDILSVIIPRARAKLNLSPHGTFLGFVKL
notes: KINEXA ligand; also called huAPRIL
- Kd (Variant BAv8-10-Ig [11]): 3.23 pM
- Kd (Variant BAv9-1-Ig [12]): 0.198 pM
- Kd (Variant BAv1-12-Ig [13]): 0.275 pM
- Kd (Variant 9-3-Ig): 18.9 pM
- Kd (Variant BAv8-9-Ig [14]): 0.0224 pM
- Kd (Variant BAv11-6-Ig [15]): 1.63 pM
- Kd (Variant BAv9-5-Ig [16]): 1.64 pM
- Kd (Variant BAv3-10-Ig [17]): 0.337 pM
- Kd (Variant BAv9-1-Ig [18]): 0.198 pM
